Experimental data reported in publication PMC2080633, “Dimerization of inositol monophosphatase Mycobacterium tuberculosis SuhB is not constitutive, but induced by binding of the activator Mg^2+” (BMC Structural Biology, 2007).

Biological target: the molecule itself
Test: AUC; sedimentation velocity, 1.0 mg.ml^-1 SuhB, no Mg^2+; 20 mM Tris-HCl pH 7.9, 50 mM NaCl, 40,000 rpm, 4°C; monomer to dimer

B1: Mycobacterium tuberculosis SuhB (Rv2701c), inositol monophosphatase (enzyme)
chain: MTRPDNEPARLRSVAENLAAEAAAFVRGRRAEVFGISRAGDGDGAVRAKSSPTDPVTVVDTDTERLLRDRLAQLRPGDPILGEEGGGPADVTATPSDRVTWVLDPIDGTVNFVYGIPAYAVSIGAQVGGITVAGAVADVAARTVYSAATGLGAHLTDERGRHVLRCTGVDELSMALLGTGFGYSVRCREKQAELLAHVVPLVRDVRRIGSAALDLCMVAAGRLDAYYEHGVQVWDCAAGALIAAEAGARVLLSTPRAGGAGLVVVAAAPGIADELLAALQRFNGLEPIPD
notes: Inositol monophosphatase SuhB (Rv2701c) of Mycobacterium tuberculosis; the crystal model covers residues 5-34, 54-85, 98-253, 260-286; also called IMPase
  stoichiometry N: 2
